Reference: patent US20090098142A1 (published 2009)
Blank lines part the entries; values can stand above or below the binder they belong to.

What was measured:
native human IL-13 [1] = molecular target: T1, native human IL-13 (human, UniProt P35225 34-146); experiment: cell-based or functional assay
[2] = molecular target: T2, cynomolgus monkey IL-13 (NHP IL-13) (cynomolgus monkey, UniProt Q5I6E4 21-132 (Macaca thibetana entry)); experiment: cell-based or functional assay
T2 chain: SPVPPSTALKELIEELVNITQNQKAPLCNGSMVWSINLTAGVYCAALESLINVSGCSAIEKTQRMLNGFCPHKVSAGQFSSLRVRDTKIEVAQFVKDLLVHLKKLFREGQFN

[3] = molecular target: T3, NHP-IL-13 in a complex with immobilized sIL-13Rα2-Fc (cynomolgus monkey; human, UniProt Q14627 27-343, limits assumed); experiment: SPR (BIACORE), sIL-13Rα2-Fc amine-coupled to a CM5 chip, NHP-IL-13 injected, then antibody
T3 construct: not shown: human IgG1 Fc tail
Protocol: sIL-13Rα2-Fc was directly coated onto a CM5 chip by standard amine coupling. NHP-IL-13 at 100 nM concentration was injected, and its binding to the immobilized IL-13Rα2-Fc was detected by BIACORE™. An additional injection of 100 nM of anti IL-13 antibodies was added, and changes in binding were monitored.

[4] = molecular target: T2, cynomolgus monkey IL-13 (NHP IL-13); experiment: sandwich ELISA, capture antibody
From the text: FIG. 20 is a series of bar graphs depicting the increases in serum IL-13 levels in individual cynomolgus monkeys treated with humanized MJ2-7 (hMJ2-7v2-11). The label in each panel (e.g., 120-452) corresponds to the monkey identification number. The “pre” sample was collected prior to administration of the antibody. The time “0” was collected 24-hours post-antibody administration, but prior to Ascaris challenge. The remaining time points were post-Ascaris challenge. The assays used to detect IL-13 levels are able to detect IL-13 in the presence of hMJ2-7v2-11 or hmAb13.2v2 antibodies. More specifically, ELISA plates (MaxiSorp; Nunc, Rochester, N.Y.), were coated overnight at 4° C. with 0.5 ug/ml mAb13.2 in PBS. Plates were washed in PBS containing 0.05% Tween-20 (PBS-Tween). NHP IL-13 standards, or serum dilutions from cynomolgus monkeys, were added and incubated for 2 hours at room temperature. Plates were washed, and 0.3 ug/ml biotinylated MJ1-64 (referred to herein as C65 antibody) was added in PBS-Tween. Plates were incubated 2 hours, room temperature, washed, and binding detected using HRP-streptavidin (Southern Biotechnology Associates) and Sure Blue substrate (Kirkegaard and Perry Labs). For detection of IL-13 in the presence of mAb13.2, the same protocol was followed, excepts that ELISA plates were coated with 0.5 ug/ml MJ2-7.

native human IL-13 [5] = molecular target: T1, native human IL-13; experiment: cell-based or functional assay; remark: listed apart in the source
FLAG-tagged NHP IL-13 = molecular target: T4, FLAG-tagged NHP IL-13 (cynomolgus monkey, UniProt Q5I6E4 21-132 (Macaca thibetana entry)); experiment: competition ELISA against biotinylated mouse MJ 2-7
T4 construct: also called NHP IL-13-FLAG; FLAG NHP IL-13; not shown: FLAG tag
T4 chain: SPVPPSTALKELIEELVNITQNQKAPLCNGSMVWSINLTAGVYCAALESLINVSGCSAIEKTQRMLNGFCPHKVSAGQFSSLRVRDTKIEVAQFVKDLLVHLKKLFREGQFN
Protocol: The ability of fully humanized MJ 2-7 mAb (V1, V2 v2) to compete with biotinylated mouse MJ 2-7 Ab for binding to NHP IL-13-FLAG was evaluated by ELISA. The microtiter plates (Costar) were coated with 1 μg/ml of anti-FLAG monoclonal antibody M2 (Sigma). The FLAG NHP IL-13 protein at concentration of 10 ng/ml was mixed with 10 ng/ml of biotin labeled mouse MJ 2-7 antibody and various concentrations of unlabeled mouse and humanized MJ 2-7 antibody. The mixture was incubated for 2 hours at room temperature and then added to the anti-FLAG antibody-coated plate. Binding of FLAG NHP-IL-13/bioMJ2-7 Ab complexes was detected with streptavidin-HRP and 3,3′,5,5′-tetramethylbenzidine (TMB). […] BIACORE™ analysis also confirmed that NHP IL-13 had rapid binding to and slow dissociation to immobilized h1uMJ 2-7 v2.11.

[6] = molecular target: T2, cynomolgus monkey IL-13 (NHP IL-13); experiment: SPR (BIACORE), antibody captured on goat anti-human IgG Fc, NHP-IL-13 at 0.09-600 nM injected, 1:1 model, 22.5 C
Protocol: (§1) For kinetic analysis, the monoclonal antibody hMJ2-7 V2-11 was captured onto the anti IgG antibody surface by injecting 40 μl of a 1 μg/ml solution. The net difference between the baseline and the point approximately 30 seconds after completion of injection was taken to represent the amount of target bound. Solutions of NHP-IL-13 at 600, 200, 66.6, 22.2, 7.4, 2.5, 0.8, 0.27, 0.09 and 0 nM concentrations were injected in triplicate at a flow rate of […] for 2 minutes, and the amount of bound material as a function of time was recorded (FIG. 8). The dissociation phase was monitored in HBS/EP buffer (10 mM HEPES, pH 7.4, containing 150 mM NaCl, 3 mM EDTA and 0.005% (v/v) Surfactant P20) for 5 minutes at the same flow rate followed by two 5 μl injections of glycine, pH 1.5, to regenerate a fully active capturing surface. All kinetic experiments were done at 22.5° C. in HBS/EP buffer. Blank and buffer effects were subtracted for each sensorgram using double referencing.

[7] = molecular target: T2, cynomolgus monkey IL-13 (NHP IL-13); experiment: SPR (BIACORE), Kd=kd/ka from the kinetic rate constants
Protocol: as §1

T1 sequence (P35225 other isoform, or with tags, fused parts or gaps): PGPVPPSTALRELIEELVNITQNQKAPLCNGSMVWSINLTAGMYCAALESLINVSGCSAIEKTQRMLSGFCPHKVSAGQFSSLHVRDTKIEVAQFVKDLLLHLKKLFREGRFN

B3: monoclonal antibody 13.2 (mAb13.2) (antibody, mouse IgG1, V domains shown)
VH: EVKLVESGGGLVKPGGSLKLSCAASGFTFISYAMSWVRQTPEKRLEWVASISSGGNTYYPDSVKGRFTISRDNARNILYLQMSSLRSEDTAMYYCARLDGYYFGFAYWGQGTTVTVSS
VL: DIVLTQSPASLAVSLGQRATISCKASESVDNYGKSLMHWYQQKPGQSPKLLIYRASNLESGIPARFSGSGSRTDFTLTINPVEADDVATYYCQQSNEDPWTFGGGTKLEIK
binding result [4]: binds

B4: humanized MJ 2-7 V2.4 (VH V2.4 / VL V2) (antibody, V domains shown)
VH: EVQLVESGGGLVQPGGSLRLSCAASGFNIKDTYIHWVRQAPGKGLEWVGRIDPANDNIKYDPKFQGRFTISRDNAKNSLYLQMNSLRAEDTAVYYCARSEENWYDFFDYWGQGTLVTVSS
VL: DIQMTQSPSSLSASVGDRVTITCRSSQSIVHSNGNTYLEWYQQKPGKAPKLLIYKVSNRFSGVPSRFSGSGSGTDFTLTISSLQPEDFATYYCFQGSHIPYTFGGGTKVEIKR
Native hIL-13 STAT6 assay IC 50, nM (native human IL-13 [5]): 17.5 nM

B5: humanized MJ 2-7 V2.1 (VH V2.1 / VL V2) (antibody, V domains shown)
VH: EVQLVESGGGLVQPGGSLRLSCAASGFNIKDTYIHWVRQAPGKGLEWIGRIDPANDNIKYDPKFQGRFTISRDNAKNSLYLQMNSLRAEDTAVYYCARSEENWYDFFDYWGQGTLVTVSS
VL: DIQMTQSPSSLSASVGDRVTITCRSSQSIVHSNGNTYLEWYQQKPGKAPKLLIYKVSNRFSGVPSRFSGSGSGTDFTLTISSLQPEDFATYYCFQGSHIPYTFGGGTKVEIKR
Native hIL-13 STAT6 assay IC 50, nM (native human IL-13 [5]): 2.8 nM

B6: humanized MJ 2-7 V2.7 (VH V2.7 / VL V2) (antibody, V domains shown)
VH: EVQLVESGGGLVQPGGSLRLSCAASGFNIKDTYIHWVRQAPGKGLEWVGRIDPANDNIKYDPKFQGRFTISADNAKNSLYLQMNSLRAEDTAVYYCARSEENWYDFFDYWGQGTLVTVSS
VL: DIQMTQSPSSLSASVGDRVTITCRSSQSIVHSNGNTYLEWYQQKPGKAPKLLIYKVSNRFSGVPSRFSGSGSGTDFTLTISSLQPEDFATYYCFQGSHIPYTFGGGTKVEIKR
Native hIL-13 STAT6 assay IC 50, nM (native human IL-13 [5]): 1.7 nM

B7: humanized MJ 2-7 V2 (CDR grafted; VH V2 / VL V2) (antibody, human IgG1, V domains shown)
VH: EVQLVESGGGLVQPGGSLRLSCAASGFNIKDTYIHWVRQAPGKGLEWVARIDPANDNIKYDPKFQGRFTISRDNAKNSLYLQMNSLRAEDTAVYYCARSEENWYDFFDYWGQGTLVTVSS
VL: DIQMTQSPSSLSASVGDRVTITCRSSQSIVHSNGNTYLEWYQQKPGKAPKLLIYKVSNRFSGVPSRFSGSGSGTDFTLTISSLQPEDFATYYCFQGSHIPYTFGGGTKVEIKR
notes: Expressed in COS cells with human IgG1 (IgG1mut) and human kappa constant regions; also called hMJ2-7 V2; huMJ 2-7 V2
Native hIL-13 STAT6 assay IC 50, nM (native human IL-13 [5]): > 100 nM | binding result (FLAG-tagged NHP IL-13): binds

B8: humanized MJ 2-7 V2.2 (VH V2.2 / VL V2) (antibody, V domains shown)
VH: EVQLVESGGGLVQPGGSLRLSCAASGFNIKDTYIHWVRQAPGKGLEWVARIDPANDNIKYDPKFQGKATISRDNAKNSLYLQMNSLRAEDTAVYYCARSEENWYDFFDYWGQGTLVTVSS
VL: DIQMTQSPSSLSASVGDRVTITCRSSQSIVHSNGNTYLEWYQQKPGKAPKLLIYKVSNRFSGVPSRFSGSGSGTDFTLTISSLQPEDFATYYCFQGSHIPYTFGGGTKVEIKR
Native hIL-13 STAT6 assay IC 50, nM (native human IL-13 [5]): > 100 nM

B9: humanized MJ 2-7 V2.5 (VH V2.5 / VL V2) (antibody, V domains shown)
VH: EVQLVESGGGLVQPGGSLRLSCAASGFNIKDTYIHWVRQAPGKGLEWVARIDPANDNIKYDPKFQGKATISADNAKNSLYLQMNSLRAEDTAVYYCARSEENWYDFFDYWGQGTLVTVSS
VL: DIQMTQSPSSLSASVGDRVTITCRSSQSIVHSNGNTYLEWYQQKPGKAPKLLIYKVSNRFSGVPSRFSGSGSGTDFTLTISSLQPEDFATYYCFQGSHIPYTFGGGTKVEIKR
Native hIL-13 STAT6 assay IC 50, nM (native human IL-13 [5]): 1.75 nM

More lines, now with the values ahead:

STAT6 phosphorylation assay in HT-29 cells, 0.3 ng/ml native human IL-13, IC50 (native human IL-13 [1]): 0.33 nM
B1: sIL-13Rα2-Fc (soluble human IL-13 receptor alpha2 with a human IgG1 Fc tail) (Fc fusion, UniProt Q14627 27-343, looked up, not shown: a dimerising Fc or GST)
chain: DTEIKVNPPQDFEIVDPGYLGYLYLQWQPPLSLDHFKECTVEYELKYRNIGSETWKTIITKNLHYKDGFDLNKGIEAKIHTLLPWQCTNGSEVQSSWAETTYWISPQGIPETKVQDMDCVYYNWQYLLCSWKPGIGVLLDTNYNLFYWYEGLDHALQCVDYIKADGQNIGCRFPYLEASDYKDFYICVNGSSENKPIRSSYFTFQLQNIVKPLPPVYLTFTRESSCEIKLKWSIPLGPIPARCFDYEIEIREDDTTLVTATVENETYTLKTTNETRQLCFVVRSKVNIYCSDDGIWSEWSDKQCWEGEDLSKKTLLR

STAT6 phosphorylation assay in HT-29 cells, 0.3 ng/ml native human IL-13, IC50 (native human IL-13 [1]): 0.48 nM | STAT6 phosphorylation assay, native human IL-13 at 1 ng/ml, IC50 (native human IL-13 [1]): ~0.293 nM | tenascin production assay in BEAS-2B cells, 3 ng/ml native human IL-13, IC50 (native human IL-13 [1]): ~0.1 nM | CD23 expression assay, non-human primate IL-13 at 1 ng/ml, IC50 [2]: ~0.242 nM | binding result [3]: no binding (tested: 100 nM)
B2: mouse monoclonal antibody MJ 2-7 (antibody, mouse IgG1, V domains shown)
VH: EVQLQQSGAELVKPGASVKLSCTGSGFNIKDTYIHWVKQRPEQGLEWIGRIDPANDNIKYDPKFQGKATITADTSSNTAYLQLNSLTSEDTAVYYCARSEENWYDFFDYWGQGTTLTVSS
VL: DVLMTQTPLSLPVSLGDQASISCRSSQSIVHSNGNTYLEWYLQKPGQSPKLLIYKVSNRFSGVPDRFSGSGSGTDFTLKISRVEAEDLGVYYCFQGSHIPYTFGGGTKLEIK
notes: also called mAb7.1.1; murine MJ2-7

STAT6 phosphorylation assay in HT-29 cells, 0.3 ng/ml native human IL-13, IC50 (native human IL-13 [1]): 0.52 nM | koff [6]: 0.000889 s⁻¹ | kon [6]: 2.05e+07 M⁻¹ s⁻¹ | Kd [7]: 0.043 nM
B10: humanized MJ 2-7 V2.11 IgG1 with a mutated CH2 domain (antibody, V domains shown)
VH: EVQLVESGGGLVQPGGSLRLSCAASGFNIKDTYIHWVRQAPGKGLEWIGRIDPANDNIKYDPKFQGRFTISADNAKNSAYLQMNSLRAEDTAVYYCARSEENWYDFFDYWGQGTLVTVSS
VL: DIQMTQSPSSLSASVGDRVTITCRSSQSIVHSNGNTYLEWYQQKPGKAPKLLIYKVSNRFSGVPSRFSGSGSGTDFTLTISSLQPEDFATYYCFQGSHIPYTFGGGTKVEIKR
notes: VH V2.11 (back mutations V48I); A49G; R72A; L79A; human IgG1 with mutated CH2 and human kappa; also called hMJ2-7 V2-11; huMJ 2-7 V2.11

fold decrease in STAT6 phosphorylation assay in HT-29 cells, 0.3 ng/ml native human IL-13; activity against that of MJ2-7 (native human IL-13 [1]): ~20 fold | fold decrease in monocyte CD23 expression assay, 3 ng/ml NHP IL-13; activity against that of MJ2-7 and sIL-13Rα2-Fc [2]: ~20 fold
B11: mouse monoclonal antibody C65 (antibody, V domains shown)
VH: QVQLKESGPGLVAPSQSLSITCTVSGFSLTGYGVNWVRQPPGKGLEWLGIIWGDGSTDYNSALKSRLIINKDNSKSQVFLKMNSLQTDDTARYFCARDKTFYYDGFYRGRMDYWGQGTSVTVSS
VL: DVQMIQSPSSLSASLGDIVTMTCQASQGTSINLNWFQQKPGKAPKLLIFGASNLEDGVPSRFSGSRYGTNFTLTISSLEDEDMATYFCLQHSYLPWTFGGGTKLEIK
